Experimental data published in PMC13013135, “[^99mTc]Tc-PSMA-HSG for PSMA-targeted Hybrid Surgical Guidance: a new addition to the PSMA-I&S/I&T family” (European Journal of Nuclear Medicine and Molecular Imaging, 2025).

Columns and labels:
[1] = tested on: PSMA expressing LNCaP cells; experiment: Dual tracer internalization assay; format: cell-based, human; settings: 60 min, 37 °C, 0.5 nM tracer, normalized to ([^125I]IBA)KuE
Experimental: Competitive binding experiments (IC50) were carried out in accordance with an established protocol using PSMA-expressing LNCaP cells and ([^125I]I-BA)KuE as standard radioligand. […] Please see the Supplementary Material for experimental details. […] The supernatant was removed, cells were washed with assay medium, and an acid wash (50 mM NaOAc in saline, pH 4.5) was performed to remove membrane-associated activity. Cells were then lysed using 1N NaOH, and internalized activity was quantified using a γ-counter. […] Tocris Bioscience, Bristol, UK) and normalized to the specific internalization observed for the radioiodinated reference compound in the same experiment. Data represent means ± SD (n=3) from three separate determinations.

mouse serum = experiment: Plasma protein binding (B50), ultrafiltration, mouse serum; format: in vitro ADME
Experimental: A detailed experimental procedure is provided in the Supplementary Material. […] Briefly, protein solutions (maximum concentration: […] Samples were briefly vortexed and incubated for 30 min at 37 °C. […] The filter units were then removed from the centrifugal tubes and washed twice with 300 µL PBS to recover the protein fraction. The activity in the filtrate, filter and protein fraction were then quantified using a γ-counter. […] The percentages of radioligand bound to the respective proteins are represented as means ± standard deviation (SD) of three independent experiments.

in vivo = settings: mouse, in vivo
Experimental: The biodistribution of [^99mTc]Tc-PSMA-HSG and of the reference compound [^99mTc]Tc-PSMA-I&S was investigated in LNCaP xenograft bearing NSG mice (see supplemental information).
Mice were injected intravenously with the respective ^99mTc-labeled tracer (24–34 MBq (fixed peptide dose of 1 nmol/mouse) or 3.7–7.6 MBq (fixed peptide doses of 0.1 nmol/mouse), respectively) and were sacrificed at 2 h (1 nmol-cohort) or 6 h p.i. (0.1 nmol-cohort), respectively. The organs of interest were dissected, and the activity concentration in weighed tissue samples was quantified using an AMG Automatic Gamma Counter (Hidex, Turku, Finland). Biodistribution data are given in %iD/g and represent means ± SD (groups of n = 5 animals). Statistical analysis (Multiple unpaired t-test) of biodistribution data and tumor/organ ratios was performed using GraphPad Prism (Boston, USA).
To induce LNCaP tumor growth, a suspension of LNCaP cells (approx. 5 x 10^6 cells/mouse) in 200 μl of a 1:1 mixture of serum-free DMEM and Matrigel (BD Biosciences) was injected subcutaneously into the right shoulder of male NOD scid gamma (NSG) mice (6-8 weeks, in-house breeding, Dpt. of Oncology, University of Lausanne). After approximately 9 weeks, tumor size reached 4-8 mm in diameter and the mice were used for the in vivo studies.

[2] = human, in vivo
Experimental: [^99mTc]Tc-PSMA-HSG scans were performed using a GE Discovery NM/CT 670 Pro (GE Healthcare, Milwaukee, USA; n = 4) or Siemens Symbia T2 (Siemens Healthineers, Erlangen, Germany; n = 1) system. For dosimetry, planar dynamic whole body scans were performed at 5 min and 1 h after injection with a bed speed of 30 cm/min; and at 3–4 h and 20 h after injection with a speed of 12 cm/min. At 3–4 h and 20 h after injection additional SPECT/CT imaging was acquired. Attenuation maps were generated on the basis of low-dose CT. For a detailed protocol of imaging parameters and the dosimetry protocol please refer to the Supplementary Material.
The planar and SPECT/CT images per time point were processed using syngo.via (Siemens Healthineers, Erlangen, Germany). Organs were segmented on the accompanying CT of the SPECT/CT of each imaging time point to avoid errors due to misalignment during image registration. Segmented organs included gallbladder, muscle, heart, kidneys, liver, lungs, pancreas, spleen, stomach, and urinary bladder on the SPECT/CT. For bone marrow dosimetry, spherical volumes of interest (VOIs) were placed in lumbar vertebrae L2 to L4 [8]. Salivary glands and their background were manually segmented on the anterior view of the planar whole-body scans. Region-wise image statistics were extracted into spreadsheets including administered activity and the time interval between administration and imaging start.
Count statistics were converted into units of Becquerel by using the decay-corrected reference activity source that was within the field of view (FOV) of each imaging acquisition. Percentage injected activities per time were entered into MIRDfit v1.01 for fitting the time-activity data. The trapezoidal method with zero activity at time zero and physical decay extrapolation after the last time point was used for the data with only two SPECT acquisitions and monoexponential fitting was used for the three SPECT acquisitions and if the fit R² was greater than 0.97. The salivary glands with available data from four planar images were fitted biexponentially if R² was greater than 0.97. The bladder was modelled in MIRDfit assuming effective half-life, two time points and a 3 h voiding interval. The resulting time integrated activity coefficients (TIACs, unit of hours) were entered in MIRDcalc v1.22 [10] for dosimetry calculations and patient-individual organ masses for kidneys, liver, pancreas, spleen and estimate for red marrow were used for S-value adjustments.

C[N+]1=C(/C=C/C=C/C=C2/N(CCCCCC(=O)NCCCC[C@@H](NC(=O)[C@@H](CO)NC(=O)[C@@H](CO)NC(=O)[C@@H](CO)NC(=O)CS)C(=O)N[C@H](Cc3ccc(O)cc3)C(=O)N[C@H](Cc3ccc4ccccc4c3)C(=O)N[C@H](CCCCNC(=O)CCCCCCC(=O)NCCCC[C@H](NC(=O)N[C@@H](CCC(=O)O)C(=O)O)C(=O)O)C(=O)O)c3ccc(S(=O)(=O)[O-])cc3C2(C)C)C(C)(C)c2cc(S(=O)(=O)O)ccc21 [[^99mTc]Tc-PSMA-HSG, metal not drawn]
internalization [% of reference] [1]: 14 ± 1 % of reference | B50 MS (mouse serum): 142 ± 22 | tissue uptake at 6 h (in vivo; male, NOD scid gamma (NSG), iv, 0.1 nmol/mouse, total radioactivity, biodistribution, liver): 2.5 ± 0.4 %ID/g | tissue uptake at 6 h (in vivo; male, NOD scid gamma (NSG), iv, 0.1 nmol/mouse, total radioactivity, biodistribution, lung): 2.5 ± 0.5 %ID/g | tissue uptake at 6 h (in vivo; male, NOD scid gamma (NSG), iv, 0.1 nmol/mouse, total radioactivity, biodistribution, pancreas): 0.8 ± 0.3 %ID/g | tissue uptake at 6 h (in vivo; male, NOD scid gamma (NSG), iv, 0.1 nmol/mouse, total radioactivity, biodistribution, spleen): 9.7 ± 3.8 %ID/g | tissue uptake at 6 h (in vivo; male, NOD scid gamma (NSG), iv, 0.1 nmol/mouse, total radioactivity, biodistribution, stomach): 1.1 ± 0.2 %ID/g | tissue uptake at 2 h (in vivo; male, NOD scid gamma (NSG), iv, 1 nmol/mouse, total radioactivity, biodistribution, liver): 3.3 ± 0.3 %ID/g | tissue uptake at 2 h (in vivo; male, NOD scid gamma (NSG), iv, 1 nmol/mouse, total radioactivity, biodistribution, lung): 2.8 ± 0.3 %ID/g | tissue uptake at 2 h (in vivo; male, NOD scid gamma (NSG), iv, 1 nmol/mouse, total radioactivity, biodistribution, pancreas): 0.8 ± 0.1 %ID/g | tissue uptake at 2 h (in vivo; male, NOD scid gamma (NSG), iv, 1 nmol/mouse, total radioactivity, biodistribution, spleen): 5.2 ± 1.9 %ID/g | tissue uptake at 2 h (in vivo; male, NOD scid gamma (NSG), iv, 1 nmol/mouse, total radioactivity, biodistribution, stomach): 1.6 ± 0.1 %ID/g | tissue to tissue ratio at 6 h (in vivo; male, NSG, iv, 0.1 nmol/mouse, total radioactivity): 0.12 ± 0.02 | tissue uptake at 6 h (in vivo; male, NSG, iv, 0.1 nmol/mouse, total radioactivity, biodistribution, LNCaP tumor): 19.8 ± 6.6 %ID/g | tissue uptake at 6 h (in vivo; male, NSG, iv, 0.1 nmol/mouse, total radioactivity, biodistribution, blood): 1.3 ± 0.3 %ID/g | tissue uptake at 6 h (in vivo; male, NSG, iv, 0.1 nmol/mouse, total radioactivity, biodistribution, heart): 0.7 ± 0.2 %ID/g | tissue uptake at 6 h (in vivo; male, NSG, iv, 0.1 nmol/mouse, total radioactivity, biodistribution, intestines): 1.3 ± 0.2 %ID/g | tissue uptake at 6 h (in vivo; male, NSG, iv, 0.1 nmol/mouse, total radioactivity, biodistribution, kidneys): 148 ± 17 %ID/g | tissue uptake at 6 h (in vivo; male, NSG, iv, 0.1 nmol/mouse, total radioactivity, biodistribution, muscle): 0.4 ± 0.06 %ID/g | tissue uptake at 6 h (in vivo; male, NSG, iv, 0.1 nmol/mouse, total radioactivity, biodistribution, salivary glands): 4 ± 1.2 %ID/g | tissue to tissue ratio at 2 h (in vivo; male, NSG, iv, 1 nmol/mouse, total radioactivity): 0.2 ± 0.03 | tissue uptake at 2 h (in vivo; male, NSG, iv, 1 nmol/mouse, total radioactivity, biodistribution, LNCaP tumor): 12.1 ± 0.9 %ID/g | tissue uptake at 2 h (in vivo; male, NSG, iv, 1 nmol/mouse, total radioactivity, biodistribution, blood): 2.4 ± 0.3 %ID/g | tissue uptake at 2 h (in vivo; male, NSG, iv, 1 nmol/mouse, total radioactivity, biodistribution, heart): 1.3 ± 0.2 %ID/g | tissue uptake at 2 h (in vivo; male, NSG, iv, 1 nmol/mouse, total radioactivity, biodistribution, intestines): 1 ± 0.1 %ID/g | tissue uptake at 2 h (in vivo; male, NSG, iv, 1 nmol/mouse, total radioactivity, biodistribution, kidneys): 61.7 ± 7.2 %ID/g | tissue uptake at 2 h (in vivo; male, NSG, iv, 1 nmol/mouse, total radioactivity, biodistribution, muscle): 0.5 ± 0.04 %ID/g | tissue uptake at 2 h (in vivo; male, NSG, iv, 1 nmol/mouse, total radioactivity, biodistribution, salivary glands): 4.2 ± 0.5 %ID/g | tissue uptake at 6 h (in vivo; Tumor uptake in mice): 11.8 ± 1.5 %ID/g | Absorbed dose coefficient of salivary glands from planar images [2]: 0.007 ± 0.004 mGy/MBq | Absorbed dose coefficient of salivary glands from planar images, max [2]: 0.013 mGy/MBq | Absorbed dose coefficient of salivary glands from planar images, min [2]: 0.005 mGy/MBq | Absorbed dose, Brain [2]: 0.000 mGy/MBq | Absorbed dose, ET1 airway basal cells [2]: 0.000 mGy/MBq | Absorbed dose, Eye lens [2]: 0.000 mGy/MBq | Absorbed dose, Lymph nodes - extrathoracic [2]: 0.001 mGy/MBq | Absorbed dose, Tonsils [2]: 0.001 mGy/MBq | Organ TIAC, Bone marrow - red (active) [2]: 0.412 h | Organ TIAC, Gallbladder content [2]: 0.015 h | Organ TIAC, Heart content [2]: 0.164 h | Organ TIAC, Lungs [2]: 0.360 h | Organ TIAC, Muscle [2]: 1.230 h | Organ TIAC, Pancreas [2]: 0.035 h | Organ TIAC, Spleen [2]: 0.096 h | Organ TIAC, Stomach content [2]: 0.090 h | effective dose for a typically injected activity [2]: 7.9 mSv
